From IntAct's records for PubMed 31515488

B1: Protein FAM9B (Homo sapiens), Q8IZU0 (parent)
chain: MAAWGKKHAGKDPVRDECEERNRFTETREEDVTDEHGEREPFAETDEHTGANTKKPEDTAEDLTAKRKRMKMDKTCSKTKNKSKHALRKKQLKRQKRDYIHSLKLLNVLEEYITDEQKEEEEEEGEEEELIRIFQEQQKKWQQYRSVRRERLKEMKLLRDQFVKALEDFEDLCDRVFSDEDSELDN
partner: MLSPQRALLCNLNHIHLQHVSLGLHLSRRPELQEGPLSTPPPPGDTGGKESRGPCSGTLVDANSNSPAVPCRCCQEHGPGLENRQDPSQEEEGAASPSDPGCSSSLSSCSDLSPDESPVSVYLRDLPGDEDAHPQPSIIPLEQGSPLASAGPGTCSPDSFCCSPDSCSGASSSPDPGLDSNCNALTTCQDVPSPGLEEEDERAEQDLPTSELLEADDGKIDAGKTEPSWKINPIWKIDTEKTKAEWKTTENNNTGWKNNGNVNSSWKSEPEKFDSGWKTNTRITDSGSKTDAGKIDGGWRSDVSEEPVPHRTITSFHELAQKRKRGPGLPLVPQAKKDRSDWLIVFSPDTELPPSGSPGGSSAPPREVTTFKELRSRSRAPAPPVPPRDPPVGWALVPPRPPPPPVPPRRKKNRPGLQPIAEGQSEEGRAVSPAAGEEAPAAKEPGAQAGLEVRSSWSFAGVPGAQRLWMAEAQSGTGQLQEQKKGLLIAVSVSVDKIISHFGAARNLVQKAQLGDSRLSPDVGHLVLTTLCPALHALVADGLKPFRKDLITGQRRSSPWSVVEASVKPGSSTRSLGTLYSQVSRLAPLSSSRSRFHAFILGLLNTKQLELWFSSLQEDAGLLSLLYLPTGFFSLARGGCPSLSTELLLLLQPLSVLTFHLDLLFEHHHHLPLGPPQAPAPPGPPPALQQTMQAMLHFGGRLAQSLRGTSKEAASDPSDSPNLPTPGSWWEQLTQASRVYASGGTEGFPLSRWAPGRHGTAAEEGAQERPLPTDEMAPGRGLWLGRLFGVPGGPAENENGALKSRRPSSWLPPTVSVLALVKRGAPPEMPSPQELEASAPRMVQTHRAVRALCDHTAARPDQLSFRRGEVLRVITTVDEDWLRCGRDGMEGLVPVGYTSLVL
B2: Proline-rich protein 14 (Homo sapiens), Q9BWN1 (parent)
chain: MDLPGDSSPPGQPRLCRQPLTRALWGARSPKRPRLQLPGAPSPLEKASRRVLAVVLEDVMAVHMVPVVPSKQTSIPQHHSYHQDPVHRQPPASPPRQAGWSSQARPPDPLCLCREPLSRIHRTSSTLRRRSRTTPGPEEGPSQKVDRAPQPTLVVMLEDIASPRPPAEGFIDETPNFIIPAQRAEPMRIVRQPTPPPGDLEPPFQPSALPADPLESPPTAPDPALELPSTPPPSSLLRPRLSPWGLAPLFRSVRSKLESFADIFLTPNKTPQPPPPSPPMKLELKIAISEAEQSGAAEGTASVSPRPPIRQWRTQDHNTPALLPKPSLGRSYSCPDLGPPGPGTCTWPPAPPQPSRPRPRRHTVGGGEMARAPPPPRPCLRKEVFPLGGVGASPSLTTSCSSTASTSFSEPAEPRLGSTKGKEPRASKDQVLSEPETKTMGKVSRFRIRRTPARPQLNLTPMGLPRPIRLNKKEFSLEEIYTNKNYQSPTTRRTFETIFEEPRERNGTLIFTSSRKLRRAVEFRDSSLPRSRRPSRGVRAAGGRTVPPNVAPSPDVGPLLQQRLEELDALLLEEETVDREQPHWT
B3: Coiled-coil domain-containing protein 33 (Homo sapiens), Q8N5R6-5 (parent)
chain: MGEPGPPSPPAPKAAPGLIDSFSEMNNYRRAMQKMAEDILSLRRQASILEGENRILRSRLAQQEEEEGQGKASEAQNTVSMKQKLLLSELDMKKLRDRVQHLQNELIRKNDREKELLLLYQAQQPQAALLKQYQGKLQKMKALEETVRHQEKVIEKMERVLEDRLQDRSKPPPLNRQQGKPYTGFPMLSASGLPLGSMGENLPVELYSVLLAENAKLRTELDKNRHQQAPIILQQQALPVDPGELGAGGDLTERLQETHGPGHSECTETLPAQDLLSGTSDKFNLLAKLEHAQSRILSLESQLEDSARRWGREKQDLATRLQEQEKGFRHPSNSIIIEQPVSDPPGVAPRGSGGGAGSHRTPKVTGP
partner: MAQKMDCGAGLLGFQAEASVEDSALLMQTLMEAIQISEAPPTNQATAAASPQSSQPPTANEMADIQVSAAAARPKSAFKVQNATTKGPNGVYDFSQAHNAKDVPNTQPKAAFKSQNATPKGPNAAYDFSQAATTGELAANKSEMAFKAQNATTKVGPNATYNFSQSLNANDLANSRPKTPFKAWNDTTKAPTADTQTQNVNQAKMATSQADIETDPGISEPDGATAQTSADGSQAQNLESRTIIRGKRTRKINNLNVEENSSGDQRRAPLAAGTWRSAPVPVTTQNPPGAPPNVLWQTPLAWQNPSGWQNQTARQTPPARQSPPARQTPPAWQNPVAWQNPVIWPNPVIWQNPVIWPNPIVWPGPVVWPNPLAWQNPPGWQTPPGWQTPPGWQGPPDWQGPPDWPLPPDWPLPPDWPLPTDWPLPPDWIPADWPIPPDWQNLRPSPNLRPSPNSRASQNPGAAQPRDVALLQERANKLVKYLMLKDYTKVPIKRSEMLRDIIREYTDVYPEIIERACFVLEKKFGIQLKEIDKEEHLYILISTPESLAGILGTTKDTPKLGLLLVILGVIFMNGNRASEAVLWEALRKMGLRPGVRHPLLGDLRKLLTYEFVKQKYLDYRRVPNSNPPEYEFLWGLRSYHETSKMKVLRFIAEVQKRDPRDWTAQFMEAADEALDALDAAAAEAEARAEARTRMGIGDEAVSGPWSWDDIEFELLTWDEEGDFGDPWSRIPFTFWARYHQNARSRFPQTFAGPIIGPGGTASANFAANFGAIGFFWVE
B4: ADP-ribosylation factor-like protein 11 (Homo sapiens), Q969Q4 (parent)
chain: MGSVNSRGHKAEAQVVMMGLDSAGKTTLLYKLKGHQLVETLPTVGFNVEPLKAPGHVSLTLWDVGGQAPLRASWKDYLEGTDILVYVLDSTDEARLPESAAELTEVLNDPNMAGVPFLVLANKQEAPDALPLLKIRNRLSLERFQDHCWELRGCSALTGEGLPEALQSLWSLLKSRSCMCLQARAHGAERGDSKRS
partner: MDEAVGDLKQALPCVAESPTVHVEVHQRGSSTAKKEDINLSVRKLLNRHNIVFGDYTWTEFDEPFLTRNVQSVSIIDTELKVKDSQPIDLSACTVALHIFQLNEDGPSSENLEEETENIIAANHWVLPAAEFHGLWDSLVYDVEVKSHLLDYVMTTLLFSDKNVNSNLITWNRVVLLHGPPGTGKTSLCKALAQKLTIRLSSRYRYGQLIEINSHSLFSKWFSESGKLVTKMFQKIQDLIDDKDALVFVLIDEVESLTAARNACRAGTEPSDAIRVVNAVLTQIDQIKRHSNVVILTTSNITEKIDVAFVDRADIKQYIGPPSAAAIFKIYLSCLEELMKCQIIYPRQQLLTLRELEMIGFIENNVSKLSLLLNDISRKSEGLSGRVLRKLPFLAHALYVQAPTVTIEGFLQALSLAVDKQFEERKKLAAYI
B5: Proto-oncogene serine/threonine-protein kinase mos (Homo sapiens), P00540 (parent)
chain: MPSPLALRPYLRSEFSPSVDARPCSSPSELPAKLLLGATLPRAPRLPRRLAWCSIDWEQVCLLQRLGAGGFGSVYKATYRGVPVAIKQVNKCTKNRLASRRSFWAELNVARLRHDNIVRVVAASTRTPAGSNSLGTIIMEFGGNVTLHQVIYGAAGHPEGDAGEPHCRTGGQLSLGKCLKYSLDVVNGLLFLHSQSIVHLDLKPANILISEQDVCKISDFGCSEKLEDLLCFQTPSYPLGGTYTHRAPELLKGEGVTPKADIYSFAITLWQMTTKQAPYSGERQHILYAVVAYDLRPSLSAAVFEDSLPGQRLGDVIQRCWRPSAAQRPSARLLLVDLTSLKAELG
partner: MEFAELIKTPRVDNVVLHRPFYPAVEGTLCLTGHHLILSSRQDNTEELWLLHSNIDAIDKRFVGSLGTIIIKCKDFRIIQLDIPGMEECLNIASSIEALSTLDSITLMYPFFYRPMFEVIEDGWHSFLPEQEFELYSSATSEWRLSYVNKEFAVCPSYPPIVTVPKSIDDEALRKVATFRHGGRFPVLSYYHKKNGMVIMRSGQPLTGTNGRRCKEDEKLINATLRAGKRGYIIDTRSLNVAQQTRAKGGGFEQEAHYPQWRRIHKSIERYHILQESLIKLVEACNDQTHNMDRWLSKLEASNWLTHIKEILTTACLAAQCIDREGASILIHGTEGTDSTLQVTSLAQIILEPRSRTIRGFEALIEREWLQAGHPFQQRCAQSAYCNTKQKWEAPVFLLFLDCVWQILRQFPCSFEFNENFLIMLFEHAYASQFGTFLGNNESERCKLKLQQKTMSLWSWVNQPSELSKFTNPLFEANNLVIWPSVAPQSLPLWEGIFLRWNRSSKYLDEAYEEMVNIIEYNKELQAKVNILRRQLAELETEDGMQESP
B6: Protein FRA10AC1 (Homo sapiens), Q70Z53 (parent)
chain: MHGHGGYDSDFSDDERCGESSKRKKRTVEDDLLLQKPFQKEKHGKVAHKQVAAELLDREEARNRRFHLIAMDAYQRHTKFVNDYILYYGGKKEDFKRLGENDKTDLDVIRENHRFLWNEEDEMDMTWEKRLAKKYYDKLFKEYCIADLSKYKENKFGFRWRVEKEVISGKGQFFCGNKYCDKKEGLKSWEVNFGYIEHGEKRNALVKLRLCQECSIKLNFHHRRKEIKSKKRKDKTKKDCEESSHKKSRLSSAEEASKKKDKGHSSSKKSEDSLLRNSDEEESASESELWKGPLPETDEKSQEEEFDEYFQDLFL

Variants of: B1
Conditions: with rusc1_human RUSC1, Q9BVN2

Row | effect of a mutation on the interaction | Variant
1 | with no effect | R23H

Variants of: B2
Conditions: with cbx5_human CBX5, P45973
Sequence of cbx5_human CBX5, P45973 (P45973 whole entry): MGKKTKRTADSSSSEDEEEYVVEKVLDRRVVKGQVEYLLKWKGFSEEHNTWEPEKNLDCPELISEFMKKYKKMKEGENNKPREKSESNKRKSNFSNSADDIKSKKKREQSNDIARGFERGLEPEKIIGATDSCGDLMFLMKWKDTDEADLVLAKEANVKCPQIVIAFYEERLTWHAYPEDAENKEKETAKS

Row | effect of a mutation on the interaction | Variant
2 | with no effect | R114L
3 | with no effect | P359L

Variants of: B3
Conditions: with magd1_human MAGED1, Q9Y5V3

Row | effect of a mutation on the interaction | Variant
4 | with no effect | M25V

Variants of: B4
Conditions: with pch2_human TRIP13, Q15645

Row | effect of a mutation on the interaction | Variant
5 | with no effect | C148R

Variants of: B5
Conditions: with mtmr9_human MTMR9, Q96QG7

Row | effect of a mutation on the interaction | Variant
6 | with no effect | I55V

Variants of: B6
Conditions: with tri41_human TRIM41, Q8WV44

Row | effect of a mutation on the interaction | Variant
7 | with no effect | S251F
